Test results reported in publication PMC10563435, “Anti-GARP Antibodies Inhibit Release of TGF-β by Regulatory T Cells via Different Modes of Action, but Do Not Influence Their Function In Vitro” (ImmunoHorizons, 2023).

Key:
Settings in all cases: both partners purified
[1] = target: T1, GARP extracellular domain (aa 20-627), Fc-His part cleaved off (UniProt Q14392); test: BLI; Abs (10 µg/ml) captured for 180 s on AMC or AHC (anti-murine or anti-human IgG Fc capture) tips; 10 µg/ml GARP, GARP/L-TGF-β or L-TGF-β in solution for 180 s, 600 s dissociation; PBS
T1 construct: GARP (LRRC32) extracellular domain, aa 20-627; also called LRRC32; GARP-Fc-His; source: HEK293-E6, transiently transfected, purified from supernatant (Ni-NTA, SEC; Fc-His removed with papain and protein A beads); not shown: Fc (human IgG1), C-terminal, cleaved; His tag, C-terminal, cleaved
T1 sequence (Q14392 20-627): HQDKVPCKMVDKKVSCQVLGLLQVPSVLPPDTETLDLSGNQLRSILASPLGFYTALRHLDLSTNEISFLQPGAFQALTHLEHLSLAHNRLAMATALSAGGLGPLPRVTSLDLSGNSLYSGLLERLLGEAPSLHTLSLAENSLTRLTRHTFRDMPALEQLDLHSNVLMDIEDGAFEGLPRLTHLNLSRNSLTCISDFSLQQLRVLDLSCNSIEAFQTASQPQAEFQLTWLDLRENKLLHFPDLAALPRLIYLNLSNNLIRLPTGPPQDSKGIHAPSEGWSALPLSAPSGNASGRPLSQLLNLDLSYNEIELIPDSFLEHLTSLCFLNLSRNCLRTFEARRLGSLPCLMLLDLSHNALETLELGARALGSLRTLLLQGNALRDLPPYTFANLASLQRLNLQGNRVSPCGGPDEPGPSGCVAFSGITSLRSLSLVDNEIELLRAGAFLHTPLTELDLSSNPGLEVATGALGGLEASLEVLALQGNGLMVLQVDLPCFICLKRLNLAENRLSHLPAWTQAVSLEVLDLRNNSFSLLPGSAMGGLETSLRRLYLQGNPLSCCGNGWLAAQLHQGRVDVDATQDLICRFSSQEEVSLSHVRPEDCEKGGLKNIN

[2] = target: T2, His-L-TGF-β1 (N-terminal His tag followed by aa 30-390 of L-TGF-β1) (Homo sapiens (deposit 8C7H), UniProt P01137); test: as above
T2 construct: latent TGF-β1 (LAP and mature TGF-β), aa 30-390; The introduction says that the proprotein is cleaved by a furin-like convertase into LAP and mTGF-β, which stay noncovalently associated; also called latent form of TGF-β; source: HEK293-E6, transiently transfected, purified from supernatant (Ni-NTA, SEC)
T2 sequence (P01137 30-390): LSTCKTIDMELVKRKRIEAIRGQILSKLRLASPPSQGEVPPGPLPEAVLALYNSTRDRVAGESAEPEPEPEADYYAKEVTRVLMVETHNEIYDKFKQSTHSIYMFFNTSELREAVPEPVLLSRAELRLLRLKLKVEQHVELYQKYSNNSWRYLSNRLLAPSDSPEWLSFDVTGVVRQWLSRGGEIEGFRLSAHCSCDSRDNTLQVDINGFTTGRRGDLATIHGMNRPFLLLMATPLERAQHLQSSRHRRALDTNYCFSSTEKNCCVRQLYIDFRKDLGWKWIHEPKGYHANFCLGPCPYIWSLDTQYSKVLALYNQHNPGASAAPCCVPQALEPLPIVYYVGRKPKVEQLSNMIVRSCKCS

[3] = target: T3, GARP/L-TGF-β complex (recombinant) (Homo sapiens (deposit 8C7H), UniProt Q14392;P01137); test: as above
T3 construct: GARP (LRRC32) extracellular domain, aa 20-627; latent TGF-β1 (LAP and mature TGF-β), aa 30-390; The introduction says that L-TGF-β is linked to GARP by two disulfide bonds and is cleaved into LAP and mTGF-β; also called L-TGF-β/GARP complex; GARP-Fc-His/L-TGF-β; source: HEK293-E6, transiently transfected, purified from supernatant (Ni-NTA, SEC; Fc-His removed with papain and protein A beads); not …

[4] = target: T3, GARP/L-TGF-β complex (recombinant); test: cryo-EM structure; GARP/L-TGF-β incubated 30 min at 4°C with an excess of Fab, complex purified by SEC in 15 mM HEPES (pH 7.5), 100 mM NaCl; LHG-10 map 2.7 Å with atomic model; 28G11 map 7.5 Å with docked models of PDB 6GFF
[5] = target: T4, L-TGF-β1 (aa 30-390), as it stands in the GARP/L-TGF-β complex (UniProt P01137); test: as above
T4 construct: latent TGF-β1 (LAP and mature TGF-β), aa 30-390; Untagged construct, used only within the complex m3; The introduction says it is cleaved into LAP and mTGF-β; also called LAP and mTGF-β; source: HEK293-E6, transiently transfected, purified as the complex with GARP
T4 sequence (P01137 30-390, one chain of several): as the sequence (P01137 30-390) above

| binding result [1] | binding result [2] | binding result [3] | binding result [4] | stoichiometry N [4] | binding result [5] | Binder |
| --- | --- | --- | --- | --- | --- | --- |
| no binding (tested: 10 µg/ml) | no binding (tested: 10 µg/ml) | binds | – | – | – | LHG-10 (anti-L-TGF-β/GARP Ab), full-length antibody (antibody, V domains shown, source: HEK293-E6, transiently transfected, purified (protein A MabSelect SuRe)) VH: EVQLVQPGAELRNSGASVKVSCKASGYRFTSYYIDWVRQAPGQGLEWMGRIDPEDGGTKYAQKFQGRVTFTADTSTSTAYVELSSLRSEDTAVYYCARNEWETVVVGDLMYEYEYWGQGTQVTVSS VL: DIQMTQSPSSLSASLGDRVTITCQASQSISSYLAWYQQKPGQAPNILIYGASRLKTGVPSRFSGSGSGTSFTLTISGLEAEDAGTYYCQQYASVPVTFGQGTKVELK |
| – | – | – | binds | – | – | Fab LHG-10 (Fab, V domains shown, Fab part of the heavy chain of m8; As the light chain of m8; source: HEK293-E6 antibody cleaved with immobilized papain, Fc removed with protein A beads) VH: EVQLVQPGAELRNSGASVKVSCKASGYRFTSYYIDWVRQAPGQGLEWMGRIDPEDGGTKYAQKFQGRVTFTADTSTSTAYVELSSLRSEDTAVYYCARNEWETVVVGDLMYEYEYWGQGTQVTVSS VL: DIQMTQSPSSLSASLGDRVTITCQASQSISSYLAWYQQKPGQAPNILIYGASRLKTGVPSRFSGSGSGTSFTLTISGLEAEDAGTYYCQQYASVPVTFGQGTKVELK |
| no binding (tested: 10 µg/ml) | no binding (tested: 10 µg/ml) | binds | – | – | – | MHG-8 (anti-L-TGF-β/GARP Ab), full-length antibody (antibody, V domains shown, source: HEK293-E6, transiently transfected, purified (protein A MabSelect SuRe)) VH: QVQLKESGPGLVAPSQSLSITCTVSGFSLTGYGINWVRQPPGKGLEWLGMIWSDGSTDYNSVLTSRLRISKDNSNSQVFLKMNSLQVDDTARYYCARDRNYYDYDGAMDYWGQGTSVTVSS VL: DIQVTQSSSYLSVSLGDRVTITCKASDHIKNWLAWYQQKPGIAPRLLVSGATSLEAGVPSRFSGSGSGKNFTLSITSLQTEDVATYYCQQYWSTPWTFGGGTTLEIR |
| no binding (tested: 10 µg/ml) | binds | – | – | – | – | 28G11 (anti-L-TGF-β / anti-LAP Ab), full-length antibody (antibody, V domains shown, A cryo-EM map of its Fab complex is deposited in EMDB, without coordinates; source: HEK293-E6, transiently transfected, purified (protein A MabSelect SuRe)) VH: EVKLVESGGGLVQPGGSLSLSCAASGFTFTDYYMSWVRQPPGKALEWLGFIRNKPNGYTTEYSASVKGRFTISRDNSQSILYLQMNVLRAEDSATYYCARYTGGGYFDYWGQGTTLTVSS VL: DIQMTQTTSSLSASLGDRLTISCRASQDISNYLNWYQQKPDGTVKLLIYYTSRLHSGVPSRFSGSGSGTDYSLTISNLEQADIATYFCQQGDTLPWTFGGGTKLEIK |
| – | – | – | – | 1 | binds | Fab 28G11 (Fab, V domains shown, Fab part of the heavy chain of m5; The cryo-EM map is deposited in EMDB, without coordinates; As the light chain of m5; source: HEK293-E6 antibody cleaved with immobilized papain, Fc removed with protein A beads) VH: EVKLVESGGGLVQPGGSLSLSCAASGFTFTDYYMSWVRQPPGKALEWLGFIRNKPNGYTTEYSASVKGRFTISRDNSQSILYLQMNVLRAEDSATYYCARYTGGGYFDYWGQGTTLTVSS VL: DIQMTQTTSSLSASLGDRLTISCRASQDISNYLNWYQQKPDGTVKLLIYYTSRLHSGVPSRFSGSGSGTDYSLTISNLEQADIATYFCQQGDTLPWTFGGGTKLEIK |
